From PMC3570467

Target: a representative mIgG1 mAb (used for the KD determinations; not told which) (mouse)
Assay: SPR; BIAcore 2000; mIgG1 mAb immobilised on CM-5; Z variants serially diluted 250 nM to 64 µM; KD for 1:1 interaction from equilibrium response values

Kd | Substance
10 µM | ZF5I, Z domain variant with Phe to Ile substitution at position 5 (designed binder)
10 µM | ZF5R, Z domain variant with F5R substitution (designed binder)

Substance | Kd
wild type Z domain (ZWT), staphylococcal protein A-derived 58-residue three-helix bundle domain (designed binder) | > 100 µM
